Assay results: publication doi:10.1101/2021.10.29.466147 (bioRxiv, 2021)

T1: Ycs4, HEAT-repeat subunit I of S. cerevisiae condensin (S. cerevisiae, UniProt Q06156 1-1176)
T1 sequence: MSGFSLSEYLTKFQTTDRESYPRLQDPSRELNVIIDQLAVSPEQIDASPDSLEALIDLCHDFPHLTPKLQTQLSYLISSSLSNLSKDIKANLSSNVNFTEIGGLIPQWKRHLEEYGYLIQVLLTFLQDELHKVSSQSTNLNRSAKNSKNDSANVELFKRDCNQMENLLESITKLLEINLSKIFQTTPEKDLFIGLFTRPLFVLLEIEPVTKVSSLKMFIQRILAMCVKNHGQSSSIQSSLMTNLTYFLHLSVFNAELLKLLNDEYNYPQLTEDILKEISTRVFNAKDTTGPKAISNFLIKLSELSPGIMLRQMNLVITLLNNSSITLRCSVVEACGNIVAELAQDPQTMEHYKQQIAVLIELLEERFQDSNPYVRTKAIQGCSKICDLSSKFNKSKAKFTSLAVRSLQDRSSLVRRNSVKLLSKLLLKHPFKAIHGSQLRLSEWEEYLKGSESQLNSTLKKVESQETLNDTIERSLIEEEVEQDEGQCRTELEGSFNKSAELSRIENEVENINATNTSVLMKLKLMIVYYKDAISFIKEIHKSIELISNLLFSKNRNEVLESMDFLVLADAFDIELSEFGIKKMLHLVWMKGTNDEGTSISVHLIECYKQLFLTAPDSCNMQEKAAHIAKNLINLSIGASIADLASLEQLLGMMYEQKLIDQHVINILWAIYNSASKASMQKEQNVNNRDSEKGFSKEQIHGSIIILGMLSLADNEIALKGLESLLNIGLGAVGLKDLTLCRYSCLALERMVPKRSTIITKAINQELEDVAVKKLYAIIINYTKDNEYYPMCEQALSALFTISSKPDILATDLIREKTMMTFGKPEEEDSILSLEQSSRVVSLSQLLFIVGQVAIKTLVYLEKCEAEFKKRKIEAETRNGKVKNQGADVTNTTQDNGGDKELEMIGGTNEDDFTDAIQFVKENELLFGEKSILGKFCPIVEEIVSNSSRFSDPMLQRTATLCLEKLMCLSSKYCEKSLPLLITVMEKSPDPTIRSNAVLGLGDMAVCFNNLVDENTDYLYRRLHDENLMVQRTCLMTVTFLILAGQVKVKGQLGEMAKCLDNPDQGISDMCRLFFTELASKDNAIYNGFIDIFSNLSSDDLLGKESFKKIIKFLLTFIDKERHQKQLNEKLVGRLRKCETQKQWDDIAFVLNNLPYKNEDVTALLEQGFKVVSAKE

T2: Ycg1, HEAT-repeat subunit II of S. cerevisiae condensin (S. cerevisiae, UniProt Q06680 1-1035)
T2 sequence (looked up): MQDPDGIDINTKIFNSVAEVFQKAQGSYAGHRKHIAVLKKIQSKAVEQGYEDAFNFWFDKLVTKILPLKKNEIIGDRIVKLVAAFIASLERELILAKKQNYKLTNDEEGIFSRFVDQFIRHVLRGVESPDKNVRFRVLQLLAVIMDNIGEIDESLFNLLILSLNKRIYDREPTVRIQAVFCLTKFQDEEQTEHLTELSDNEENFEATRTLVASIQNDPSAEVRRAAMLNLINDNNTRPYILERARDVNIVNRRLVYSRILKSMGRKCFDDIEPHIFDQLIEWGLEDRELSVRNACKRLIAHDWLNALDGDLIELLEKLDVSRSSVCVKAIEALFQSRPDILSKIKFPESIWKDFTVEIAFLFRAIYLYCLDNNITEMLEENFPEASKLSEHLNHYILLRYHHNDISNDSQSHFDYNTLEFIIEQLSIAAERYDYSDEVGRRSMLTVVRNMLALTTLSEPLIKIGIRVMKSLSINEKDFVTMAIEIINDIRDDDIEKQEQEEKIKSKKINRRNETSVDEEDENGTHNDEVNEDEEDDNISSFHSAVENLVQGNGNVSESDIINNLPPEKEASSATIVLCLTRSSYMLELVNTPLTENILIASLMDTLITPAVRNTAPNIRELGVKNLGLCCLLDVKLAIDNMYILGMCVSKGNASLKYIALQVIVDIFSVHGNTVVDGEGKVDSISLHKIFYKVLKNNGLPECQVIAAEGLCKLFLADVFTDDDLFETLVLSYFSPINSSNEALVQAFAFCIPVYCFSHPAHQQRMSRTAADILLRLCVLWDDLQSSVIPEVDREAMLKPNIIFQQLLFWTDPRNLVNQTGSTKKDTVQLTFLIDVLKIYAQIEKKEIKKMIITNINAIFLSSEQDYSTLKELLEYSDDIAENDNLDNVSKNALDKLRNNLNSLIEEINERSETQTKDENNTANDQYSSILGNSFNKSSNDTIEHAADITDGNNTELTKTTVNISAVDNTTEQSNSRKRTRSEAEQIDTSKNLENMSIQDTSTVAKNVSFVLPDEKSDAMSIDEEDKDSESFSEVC


How the values were obtained:
[1] = biological target: condensin holo complex Smc2-Smc4-Brn1-Ycs4-Ycg1, Walker B EQ mutant (Saccharomyces cerevisiae, UniProt P38989;Q12267;P38170;Q06156;Q06680 1-1170;1-1418;1-754;1-1176;1-1035, E1113Q;E1352Q); test: cryo-EM
[2] = biological target: T1, Ycs4, HEAT-repeat subunit I of S. …; test: cryo-EM structure
[3] = biological target: T2, Ycg1, HEAT-repeat subunit II of S. …; test: co-purification

Sequence of condensin holo complex Smc2-Smc4-Brn1-Ycs4-Ycg1, Walker B EQ mutant (P38989 whole entry E1113Q, chain 1 of 2): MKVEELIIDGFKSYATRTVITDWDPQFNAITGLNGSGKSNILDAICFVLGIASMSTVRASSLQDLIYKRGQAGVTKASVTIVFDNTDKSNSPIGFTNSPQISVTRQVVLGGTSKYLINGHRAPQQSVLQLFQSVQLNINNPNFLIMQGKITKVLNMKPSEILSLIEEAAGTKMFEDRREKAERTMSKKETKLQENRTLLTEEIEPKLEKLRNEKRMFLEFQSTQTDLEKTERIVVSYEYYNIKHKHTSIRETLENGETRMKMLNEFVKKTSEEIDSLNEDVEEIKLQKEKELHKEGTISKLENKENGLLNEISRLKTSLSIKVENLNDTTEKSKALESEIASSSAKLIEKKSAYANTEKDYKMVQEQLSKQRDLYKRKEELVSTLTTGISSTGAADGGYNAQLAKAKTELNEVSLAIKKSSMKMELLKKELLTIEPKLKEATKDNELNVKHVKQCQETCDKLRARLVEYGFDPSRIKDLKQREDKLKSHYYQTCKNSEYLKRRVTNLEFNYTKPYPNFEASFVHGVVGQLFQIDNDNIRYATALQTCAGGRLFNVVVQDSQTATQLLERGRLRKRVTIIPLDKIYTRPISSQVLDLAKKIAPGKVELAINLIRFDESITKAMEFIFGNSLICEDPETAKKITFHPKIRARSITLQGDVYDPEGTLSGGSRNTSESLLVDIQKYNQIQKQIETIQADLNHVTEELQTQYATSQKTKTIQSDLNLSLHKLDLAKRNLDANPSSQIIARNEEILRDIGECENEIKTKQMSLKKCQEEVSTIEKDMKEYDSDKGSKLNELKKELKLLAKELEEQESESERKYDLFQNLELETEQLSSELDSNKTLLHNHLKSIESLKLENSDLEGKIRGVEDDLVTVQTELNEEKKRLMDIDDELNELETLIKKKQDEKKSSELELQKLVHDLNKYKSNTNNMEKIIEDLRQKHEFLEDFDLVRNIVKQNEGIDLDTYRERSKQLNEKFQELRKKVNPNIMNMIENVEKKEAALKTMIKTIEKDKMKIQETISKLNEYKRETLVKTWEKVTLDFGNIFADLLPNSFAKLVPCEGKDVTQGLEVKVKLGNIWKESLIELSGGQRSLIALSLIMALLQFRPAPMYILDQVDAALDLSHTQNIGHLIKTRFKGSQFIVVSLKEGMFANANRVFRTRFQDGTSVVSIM
Sequence of condensin holo complex Smc2-Smc4-Brn1-Ycs4-Ycg1, Walker B EQ mutant (Q12267 whole entry E1352Q, chain 2 of 2): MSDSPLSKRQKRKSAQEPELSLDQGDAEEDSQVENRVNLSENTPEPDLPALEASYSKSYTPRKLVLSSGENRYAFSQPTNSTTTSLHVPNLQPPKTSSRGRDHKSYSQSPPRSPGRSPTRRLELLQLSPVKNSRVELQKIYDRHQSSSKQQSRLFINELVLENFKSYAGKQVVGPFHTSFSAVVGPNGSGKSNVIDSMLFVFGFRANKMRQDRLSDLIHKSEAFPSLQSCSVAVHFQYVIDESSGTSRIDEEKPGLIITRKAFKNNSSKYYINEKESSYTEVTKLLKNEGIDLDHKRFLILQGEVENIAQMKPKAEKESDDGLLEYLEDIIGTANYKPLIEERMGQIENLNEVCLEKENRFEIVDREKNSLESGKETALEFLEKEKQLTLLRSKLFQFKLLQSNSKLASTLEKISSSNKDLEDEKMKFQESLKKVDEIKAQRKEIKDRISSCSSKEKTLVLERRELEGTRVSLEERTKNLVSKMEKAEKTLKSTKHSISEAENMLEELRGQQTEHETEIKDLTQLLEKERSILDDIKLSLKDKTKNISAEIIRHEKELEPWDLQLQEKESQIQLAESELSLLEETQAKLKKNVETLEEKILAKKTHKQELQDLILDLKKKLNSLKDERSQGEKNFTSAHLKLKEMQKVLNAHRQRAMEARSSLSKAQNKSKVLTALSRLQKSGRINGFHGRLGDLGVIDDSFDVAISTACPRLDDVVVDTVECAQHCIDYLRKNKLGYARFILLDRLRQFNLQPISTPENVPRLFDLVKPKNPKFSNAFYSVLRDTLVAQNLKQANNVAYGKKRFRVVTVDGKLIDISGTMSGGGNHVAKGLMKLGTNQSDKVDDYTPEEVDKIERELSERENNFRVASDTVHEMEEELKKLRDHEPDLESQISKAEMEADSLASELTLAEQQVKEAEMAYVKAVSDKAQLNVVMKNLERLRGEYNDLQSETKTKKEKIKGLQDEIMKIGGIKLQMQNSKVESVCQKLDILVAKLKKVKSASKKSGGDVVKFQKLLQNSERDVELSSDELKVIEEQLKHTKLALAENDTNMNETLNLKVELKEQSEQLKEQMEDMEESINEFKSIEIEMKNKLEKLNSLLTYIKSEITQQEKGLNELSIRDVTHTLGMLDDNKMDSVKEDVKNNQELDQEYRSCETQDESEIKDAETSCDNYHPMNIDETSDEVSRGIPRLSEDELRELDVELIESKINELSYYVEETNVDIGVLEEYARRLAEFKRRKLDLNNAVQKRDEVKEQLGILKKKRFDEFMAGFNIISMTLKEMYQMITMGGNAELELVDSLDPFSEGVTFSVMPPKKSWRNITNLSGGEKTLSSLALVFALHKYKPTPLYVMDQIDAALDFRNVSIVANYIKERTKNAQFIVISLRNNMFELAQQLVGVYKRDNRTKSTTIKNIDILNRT

Row | binding result [2] | binding result [3] | Binder | binding result [1]
1 | – | – | 50-bp dsDNA (cryo-EM) (dsDNA) DNA 1: GTTGACAGTGTCGCAACCTGCACAGGCAAGCTGCTGAGTCTGGTGTAGAC DNA 2: GTCTACACCAGACTCAGCAGCTTGCCTGTGCAGGTTGCGACACTGTCAAC | binds
2 | binds | binds | Brn1-His12-HA3, kleisin subunit of S. cerevisiae condensin (natural protein) MTTQLRYENNDDDERVEYNLFTNRSTMMANFEEWIKMATDNKINSRNSWNFALIDYFYDLDVLKDGENNINFQKASATLDGCIKIYSSRVDSVTTETGKLLSGLAQRKTNGASNGDDSNGGNGEGLGGDSDEANIEIDPLTGMPISNDPDVNNTRRRVYNRVLETTLVEFETIKMKELDQELIIDPLFKKALVDFDEGGAKSLLLNTLNIDNTARVIFDASIKDTQNVGQGKLQRKEEELIERDSLVDDENEPSQSLISTRNDSTVNDSVISAPSMEDEILSLGMDFIKFDQIAVCEISGSIEQLRNVVEDINQAKDFIENVNNRFDNFLTEEELQAAVPDNAEDDSDGFDMGMQQELCYPDENHDNTSHDEQDDDNVNSTTGSIFEKDLMAYFDENLNRNWRGREHWKVRNFKKANLVNKESDLLEETRTTIGDTTDKNTTDDKSMDTKKKHKQKKVLEIDFFKTDDSFEDKVFASKGRTKIDMPIKNRKNDTHYLLPDDFHFSTDRITRLFIKPGQKMSLFSHRKHTRGDVSSGLFEKSTVSANHSNNDIPTIADEHFWADNYERKEQEEKEKEQSKEVGDVVGGALDNPFEDDMDGVDFNQAFEGTDDNEEASVKLDLQDDEDHKFPIRENKVTYSRVSKKVDVRRLKKNVWRSINNLIQEHDSRKNREQSSNDSETHTEDESTKELKFSDIIQGISKMYSDDTLKDISTSFCFICLLHLANEHGLQITHTENYNDLIVNYEDLATTQAAS | –
